B1: Thermotoga maritima UvrA (natural protein)
chain: MNEIVVKGARVHNLKNITVRIPKNRLVVITGVSGSGKSSLAMDTIYAEGQRRYLESLSTYARQFLGNLKKPDVDEIEGLSPAIAIDQKTVSHNPRSTVGTVTEIYDYLRVLYARIGKAHCPECGRPLEKKSIDEILQDLFNSFKEGSRIYILAPVATEKKGTFKKEIEEFISKGFARIEIDGEIYRLEEVPELDKNKRHTVKLVVDRLILETRNEHRILDSLELAMREGKGFVEIRNVDTGESKIFSENLMCPVCGIGFPEITPKLFSFNSPYGACPNCHGLGFTFEVDPSLVIDEEKSVLEGAIIPYRWDRRLSRWVAREIEKRGVSPHLPFKDLPEDVKEFILYGDDRFEGVVPKVQRWHRETESPEMKEWLEKNFIVQRTCSVCGGRRLNREALSVKINGLNIHEFTELSISEELEFLKNLNLTEREREIVGELLKEIEKRLEFLVDVGLEYLTLSRSATTLSGGESQRIRLATQIGSGLTGVIYVLDEPTIGLHPRDTERLIKTLKKLRDLGNTVIVVEHDEEVIRNADHIIDIGPGGGTNGGRVVFQGTVDELLKNPDSSLTGEYLSGKRKITVNKTRRLPYASLKIKGVRHNNLKNIDVEIPLGVFVCVTGVSGSGKSSLVMETLYPALMNLLHKTKLPAGEFDSIEGHENIDKMIAIDQSPIGRTPRSNPATYTKVFDEIRSLFAMTPAAKARGYNKSRFSFNLKGGRCEACQGQGYVKIEMLFLPDVYVECDVCKGKRYNRETLEITYKGKNISDILDMTVDEALEFFKNIPSIKRTLQVLHDVGLGYVKLGQPATTLSGGEAQRIKLASELRKRDTGRTLYILDEPTVGLHFEDVRKLVEVLHRLVDRGNTVIVIEHNLDVIKNADHIIDLGPEGGKEGGYIVATGTPEEIAKNPHSYTGRFLKNVL
notes: UvrA, Thermotoga maritima; theoretical MW of the dimer printed as 205.8 kDa; the modelling section counts residues 1-916; In the assays it stood with fluorescein-modified DNA, ADP and Mg2+; also called Tm-UvrA; T. maritima (Tm) UvrA; source: BL21 STAR (DE3), pET28-SUMO based plasmid, purified (nickel resin, Ulp1 digestion, nickel resin, gel filtration)
B2: Thermus thermophilus UvrB (natural protein, UniProt Q56243 1-665, looked up)
chain: MTFRYRGPSPKGDQPKAIAGLVEALRDGERFVTLLGATGTGKTVTMAKVIEALGRPALVLAPNKILAAQLAAEFRELFPENAVEYFISYYDYYQPEAYVPGKDLYIEKDASINPEIERLRHSTTRSLLTRRDVIVVASVSAIYGLGDPREYRARNLVVERGKPYPREVLLERLLELGYQRNDIDLSPGRFRAKGEVLEIFPAYETEPIRVELFGDEVERISQVHPVTGERLRELPGFVLFPATHYLSPEGLEEILKEIEKELWERVRYFEERGEVLYAQRLKERTLYDLEMLRVMGTCPGVENYARYFTGKAPGEPPYTLLDYFPEDFLVFLDESHVTVPQLQGMYRGDYARKKTLVDYGFRLPSALDNRPLRFEEFLERVSQVVFVSATPGPFELAHSGRVVEQIIRPTGLLDPLVRVKPTENQILDLMEGIRERAARGERTLVTVLTVRMAEELTSFLVEHGIRARYLHHELDAFERQALIRDLRLGHYDCLVGINLLREGLDIPEVSLVAILDADKEGFLRSERSLIQTIGRAARNARGEVWLYADRVSEAMQRAIEETNRRRALQEAYNLEHGITPETVRKEVRAVIRPEGYEEAPLEADLSGEDLRERIAELELAMWQAAEALDFERAARLRDEIRALEARLQGVRAPEPVPGGRKRKRR
notes: theoretical MW printed as 76.2 kDa; Two UvrB monomers stand in the complex, one on each side of the UvrA dimer; The complex is heterologous (T. maritima UvrA with T. thermophilus UvrB); also called Tt-UvrB; Thermus thermophilus (Tt) UvrB; source: BL21-CodonPlus(DE3)-RIL, pET28 based plasmid, purified (nickel resin, HRV 3C digestion, nickel resin, gel filtration)

Assays:
[1] = target: the molecule itself; test: SEC-MALS; UvrA dimer (2.5 mg/ml) mixed 1:1 with self-annealed DNA (32 bp ds region, two fluorescein-modified thymines, 10 nt 5' overhangs), UvrB at two-fold molar excess over the UvrA dimer; dialysed at 4 °C against 20 mM HEPES pH 7.0, 150 mM NaCl, 5% glycerol, 1 mM DTT, 10 mM MgCl2; 1 mM ADP added; BioSuite High Resolution SEC column with MALS detector
[2] = target: B1; test: as above; conditions: both partners purified

Row | stoichiometry N [2] | Binder | stoichiometry N [1]
1 |  | B1 | 2
2 | 2 UvrB per UvrA dimer | B2 | 

Source: PMC7616783, “A combined structural and biochemical approach reveals translocation and stalling of UvrB on the DNA lesion as a mechanism of damage verification in bacterial nucleotide excision repair” (DNA repair, 2019)
